Laboratory results reported in publication PMC8256032, “Regulation of Dishevelled DEP domain swapping by conserved phosphorylation sites” (Proceedings of the National Academy of Sciences of the …, 2021).
Numbering of substitutions follows the chain as printed.

Experiments:
SNAP-FZD5 = SNAP-FZD5 (UniProt Q13467); experiment: SNAP-FZD5-dependent recruitment of DEP-GFP to the plasma membrane (cell scoring); details: n = 100 cells scored in each case, read off a plot; for other: % of cells with strong recruitment (category 'strong'): parent: est. 98
Chain of SNAP-FZD5 (Q13467 27-585): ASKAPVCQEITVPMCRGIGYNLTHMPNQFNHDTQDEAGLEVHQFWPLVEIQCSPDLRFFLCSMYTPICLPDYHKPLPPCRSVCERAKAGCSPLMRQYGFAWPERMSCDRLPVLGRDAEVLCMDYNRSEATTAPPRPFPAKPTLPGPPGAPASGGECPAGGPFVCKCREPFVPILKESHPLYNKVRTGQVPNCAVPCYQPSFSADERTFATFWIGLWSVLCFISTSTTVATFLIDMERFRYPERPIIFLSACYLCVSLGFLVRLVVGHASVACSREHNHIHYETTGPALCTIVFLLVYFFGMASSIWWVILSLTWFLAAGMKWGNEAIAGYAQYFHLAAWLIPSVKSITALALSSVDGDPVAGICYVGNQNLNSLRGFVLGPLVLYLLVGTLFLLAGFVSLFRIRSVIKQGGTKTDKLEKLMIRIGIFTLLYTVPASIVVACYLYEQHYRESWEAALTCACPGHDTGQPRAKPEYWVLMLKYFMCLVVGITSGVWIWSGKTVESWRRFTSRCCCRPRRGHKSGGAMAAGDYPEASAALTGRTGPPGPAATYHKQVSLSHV

[1] = molecular target: the molecule itself; experiment: SEC-MALS; unfractionated purified Lip-DEP_(402–510), Lip tag kept; Tris-buffered saline (30 mM Tris, 300 mM NaCl, NaN3 0.03%, pH 7.4), Superdex S-200 10/300
[2] = molecular target: the molecule itself; experiment: SEC-MALS; cleaved DEP monomer incubated with urea (0 to 5 M for wt; 3 M for the mutants) for 8 h at 25 °C, then SEC-MALS in Tris-buffered saline (30 mM Tris, 300 mM NaCl, pH 7.4); monomer to domain-swapped dimer

Molecule: DEP tagged with GFP (DEP-GFP), wild type (from UniProt O14641) S418A
- other: % of cells with strong recruitment (category 'strong') (SNAP-FZD5): 98 % of cells

Molecule: DEP tagged with GFP (DEP-GFP), wild type (from UniProt O14641) L445E
- other: % of cells with no recruitment (category 'none') (SNAP-FZD5): 94 % of cells

Molecule: DEP tagged with GFP (DEP-GFP), wild type (from UniProt O14641) S418E
- other: % of cells with strong recruitment (category 'strong') (SNAP-FZD5): 100 % of cells

Molecule: DEP tagged with GFP (DEP-GFP), wild type (from UniProt O14641) S435E
- other: % of cells with strong recruitment (category 'strong') (SNAP-FZD5): 99 % of cells

Molecule: DEP tagged with GFP (DEP-GFP), wild type (from UniProt O14641) S435A
- other: % of cells with strong recruitment (category 'strong') (SNAP-FZD5): 97 % of cells

B1: Lipoyl-tagged DEP (Lip-DEP_(402–510)), wild type (domain or fragment, human, UniProt O14641 402-510, looked up)
chain: ITSGSSLPDGCEGRGLSVHTDMASVTKAMAAPESGLEVRDRMWLKITIPNAFLGSDVVDWLYHHVEGFPERREARKYASGLLKAGLIRHTVNKITFSEQCYYVFGDLSG
notes: also called Lip-DEP402 to 510; source: E. coli BL21-CodonPlus(DE3)-RIL, purified (NiNTA, SEC)
- stoichiometry N [1]: 2

B2: Lip-DEP_(402–510) S435A (domain or fragment, human, UniProt O14641 402-510, looked up)
chain: B1 chain with S34A
notes: source: E. coli BL21-CodonPlus(DE3)-RIL, purified (NiNTA, SEC)
- binding result [1]: binds

B3: Lip-DEP_(402–510) S418A (domain or fragment, human, UniProt O14641 402-510, looked up)
chain: B1 chain with S17A
notes: as for B2
- binding result [1]: binds

B4: cleaved wt DEP monomer (Lip tag removed) (domain or fragment, human, UniProt O14641 402-510, looked up)
chain: B1 chain
notes: also called monomeric DEP; source: E. coli BL21-CodonPlus(DE3)-RIL, purified (NiNTA, SEC), Lip tag removed by tobacco etch virus protease
- stoichiometry N [2]: 2

B5: Lip-DEP_(402–510) S435E (domain or fragment, human, UniProt O14641 402-510, looked up)
chain: B1 chain with S34E
notes: as for B2
- binding result [1]: binds

B6: Lip-DEP_(402–510) S418E (domain or fragment, human, UniProt O14641 402-510, looked up)
chain: B1 chain with S17E
notes: as for B2
- binding result [1]: binds
